The nature of the data set: soluble on expression in E. coli; label from the status in PepcDB or PDB records.
In the case of “MPTPKAFALLGPTAGGKTALALKIAETLPVEIISLDSALVYRDMDIGTAKPSASERAFVPHHLIDIIPPTESYSAARFVEDCTRLVGEISSRGRFALIVGGTMMYFRALTQGLNDLPEADACLRADLDEQKQMYGLDFLYRTLQKVDPETACRLKPNDSQRIGRALEVYYLTGKPMSTHLGSLTSHTLPFDLHTAALIPENRARLHENIALRFHLMLEQGFIGEVENLRRRYPGLTAYSPAIRCVGYRQAWKYLDGKTDFPAFVEKGIAATRQLAKRQLTWLRKTPLDCVADPFSDCTSCTRLIEAAKRFFGA”, the “soluble on expression in E. coli” value is on record as “not soluble”.
To “MMLEQLIQLKQDLIDGSKVEKPSLDDKQIDEMDILVSEALEFNKELKFKLFNKGFVENVTGRVHYINFEQQKLHVKDQNDNTVYINMNNIIRVIYND” belongs “not soluble”.
Consider “MGTPKPRILPWLVSQLDLGQLEGVAWVNKSRTRFRIPWKHGLRQDAQQEDFGIFQAWAEATGAYVPGRDKPDLPTWKRNFRSALNRKEGLRLAEDRSKDPHDPHKIYEFVNSGVGDFSQPDTS”, for which the “soluble on expression in E. coli” value was “soluble”.
In the case of “MNDPMGETGFSRESAPEIVFSETDMAAAEQLMHLSEEETVSCSSSTGGDCGGGGGDKIKHEYVSSRIGNELNDGVRGNSILGVEKKRKRTVMKEKKFRSLESIYKGTKEIRD”, the “soluble on expression in E. coli” value was “not soluble”.
For the sequence “ANMPPGSVEQVAAKVVPSVVMLETDLGRQSEEGSGIILSAEGLILTNNHVIAAAAKPPLGSPPPKTTVTFSDGRTAPFTVVGADPTSDIAVVRVQGVSGLTPISLGSSSDLRVGQPVLAIGSPLGLEGTVTTGIVSALNRPVSTTGEAGNQNTVLDAIQTDAAINPGNSGGALVNMNAQLVGVNSAIATLGADSADAQSGSIGLGFAIPVDQAKRIADELISTGKASHASLGVQVTNDKDTLGAKIVEVVAGGAAANAGVPKGVVVTKVDDRPINSADALVAAVRSKAPGATVALTFQDPSGGSRTVQVTLGKAEQLEHHHHHH”, the “soluble on expression in E. coli” value is listed as “soluble”.
In the case of “MSLEKYNAEVERDPFANRVFEQEEKRELTSEQRIAYENIKEKINNSEQRTFLLHGVTGSGKTEVYLQTIEEVLNKGKEAMMLVPEIALTPQMVLRFKRRFGDDVAVLHSGLSNGERYDEWQKIRDGRARVSVGARSSIFAPFKNLGIIIIDEEHESTYKQEDYPRYHARDIAEWRSQFHQCPLVLGSATPSLESYARTEKGVYQLLTLPTRVNQQALPSIDIVDMREELSAGNRSMFSNELREAIEDRLRKNEQIVLFLNRRGYASFMLCRDCGYVPQCPHCDISLTYHKSTDQLKCHYCGYHEVPPNKCPNCESSHIRQVGTGTQRVEEILQQEFEEARIIRMDVDTTSRKGAHEKLLNEFEEGKGDILLGTQMIAKGLDYPNITLVGVLNADTMLNLPDFRASERTYQLLTQVAGRAGRHDKPGRVIIQTYNPEHYAIQDVQKNDYLTFYQKEMEYRKIGKYPPYYFLINFTISHKNMKKVMEASKHIHQILLQHLTDRALVLGPSPAAIARINNEHRFQILVKYKSEPELLKALQYLDDYYHEAYLKNKLALKIDINPQILMEGHHHHHH”, the “soluble on expression in E. coli” value is listed as “soluble”.
As for “MKTLIKNGKIIKKENQLIEAALWLENGVIHAIGESFDEADFEQVFDANGQLITPGLVDVHVHFREPGFTYKETIKTGSKAAARGGFTTVCAMPNLNPVPDTAEKLSEVYDLIQKDAVVKVLQYAPITEELRSEVLTNQKALKEAGAFAFTNDGVGVQTAGTMYLAMKEAAALNMALVAHTEDESLLFGGVMHEGEVSKKLGLPGILSATEASQIARDITLAKETGVHYHVCHVSTEESVRVIRDAKKAGIHVTAEVSPHHLILVDEDIPGDEGFWKMNPPLRGLADRQALIDGLLDGTIDCIATDHAPHGLEEKQQSFLNAPFGIVGSETAFQLIYTNFVETGIFTLEQVIDWMAVKPAEIFGLNAGTLTIGAPADIAVFDLATAAPIDAEAFESMAVNTPFTGWTVKGKTLMTFVDGALAWSEEAQ”, the “soluble on expression in E. coli” value is reported as “not soluble”.
“MTDNLLSISAACLFDDQGNLLLVRKRGTQAFMLPGGKREPGETPLAALQRELLEELRLPMGASTFEHLGSFQAPAANEANTRVDADIYVARLPHAVCAQAELEELAWLVPGQAQPDNLAPLLRDHVLPALARRAAENPETQAEHRTRPDHVR”: the “soluble on expression in E. coli” value is recorded as “not soluble”.
For the sequence “GPGSMFYPNSPQTSPQLTQIPYGQQYAMMQRQIQQPYHPFATTEPQARLYPYHYQGPIQQEQGGFITQQSTAASPQYVQMRVTPVDQSIMSGYPNQTANGSSSSSFNYNIHPQQQQQQQQQQQLRHHAMPVGSVPLQDDRYRKQLIVNYLAPDVTSTDLHELFSRFGELDGARIIYDKQTNMSKGYGFVYFCHAEDAKEAVERMSGYEFHGKWLKVGYSTNPLNIVPSNSSPYVHAGSRGAAG”, the “soluble on expression in E. coli” value is given as “not soluble”.
For “SGDPNSRKKQALNRLRAQLRKKKESLADQFDFKMYIAFVFKEKKKKSALFEVSEVIPVMTNNYEENILKGVRDSSYSLESSLELLQKDVVQLHAPRYQSMRRDVIGCTQEMDFILWPRNDIEKIVCLLFSRWKESDEPFRPVQAKFEFHHGDYEKQFLHVLSRKDKTGIVVNNPNQSVFLFIDRQHLQTPKNKATIFKLCSICLYLPQEQLTHWAVGTIEDHLRPYMPE”, the “soluble on expression in E. coli” value is “soluble”.
For the sequence “MGSSHHHHHHSSGLVPRGSHMMRKQRIVIKISGACLKQNDSSIIDFIKINDLAEQIEKISKKYIVSIVLGGGNIWRGSIAKELDMDRNLADNMGMMATIINGLALENALNHLNVNTIVLSAIKCDKLVHESSANNIKKAIEKEQVMIFVAGTGFPYFTTDSCAAIRAAETESSIILMGKNGVDGVYDSDPKINPNAQFYEHITFNMALTQNLKVMDATALALCQENNINLLVFNIDKPNAIVDVLEKKNKYTIVSK”, the “soluble on expression in E. coli” value is “soluble”.
On to “MAAIKINKLLTIESNSSHTLLESMEQAGLEPEYNCRDGHCGACRCQLISGEVEYVGFAMAYTQGNEILPCICRAKTALEIEQVTYQLKAKRA”, for which the “soluble on expression in E. coli” value is listed as “not soluble”.
In the case of “MGSDKIHHHHHHMIKVEIDEGSGFCFGVVTAIHKAEEELAKGETLYCLGDIVHNSREVERLKAMGLITINRDEFRQLRNAKVLLRAHGEPPETYQIAHKNNIEIIDATCPVVLRLQKRIKQEFRKEDFEEKQIVIYGKNGHAEVLGLVGQTGGQAIVIESAEEAKKLDFTKSIRLFSQTTKSLDEFQEIVEYIKLHISPDATFEYYDTICRQVANRMPNLREFAATHDLIFFVSGKKSSNGKMLFEECLKVNANSHLIDNEKEIDPTLLRNVKSIGVCGATSTPKWLMEKIHDHIQLLIKD”, the “soluble on expression in E. coli” value is listed as “not soluble”.
With “MWLEKFKNKNKETKYRYYEKYKDPLTAKWRRVSVVLNKNGKQSQKEAQRLLNERIEAKLNDKTPTTLKSLTFHVACDEWFQSYIKTSGSKRTTIKTKLSKLNTLKKFVDEDILINKITLSYAQQVFDEMDNKGYVYQVNKDALSIFKNVFEYTRRIYKLQDLEFLKDITLNKRIKSYDEVKAKRNKYLELNEIQSIIKDINTKAQKMHSGIHKRFYLFVALMTEFQALNGMRIGEMLAIQNEDIDFDNKSLNINGTIHWFHDESGGFGVKDTTKTESSYRTIGLSSRSCEILKKAILENKKDSKWNDGYLNRNFVFTNHKGNPMQTERFNKILREAAKDVGIDKEVSSHILRHSHISLLSQQGVSLKAIMDRVGHSDHRTTLSIYSHVTEQMDKDMMNKLEQVKLG”, the “soluble on expression in E. coli” value is listed as “not soluble”.
For “MDSKILTMFNQGKHEEAIQAAVKAIDAAPDDPKRYAMLATMLISIKALDQAGELLAKARQLFPEDLELQYTAGLFAYAQADFAAAVSWFAKVRTDQTLKNDATYMLALSYQQAGQPTKALAFALTAHDLAPKQLDTALLAADLLMANDVFDAAARVLKPLLATEQPQVLFTYGMALSAAGKDGSHYLNKAKALDPKGYDQKANIVADINRFLRLQEGQDGHALEHHHHHH”, the “soluble on expression in E. coli” value is listed as “soluble”.
As to “MGSDKIHHHHHHMSQTTLSTIPRLIGQVLSIYDVAPEAIFSAANIDITSDAQTRVPMENMATLWKLAVEATHNNELGLVAASLFQPVYLKSIGLAWLASENLEEGLKRYIASSQLINTEMQIELTERDGIDGEETLIQYQRRLTSSNTIKVHPCAIELGIGFFLKMFRLAAGKNIPATGVYFTFAIEENNKVYEEYFQCPVYGNQAVNGIAFSKALLTETLPTHDVELVEMNEVVINKHLDSMDNGETSSKVIKMINDLLPLGCPTEEVIAYKLHMSKRTLQRKLSVEKQSFLALLTSVRLMLAKEKLANKRVSVTEITYQLGYSSPSTFARAFKKHTQLSPLEYRNQVSSYSSCS”, the “soluble on expression in E. coli” value is “not soluble”.
